No end group written: not given here.
Experiments:
[1] = test system: mouse primary hindbrain neurons (MPHN); test: Calcium flux in primary hindbrain neurons; assay type: cell-based; conditions: MPHN treated with undercarboxylated or carboxylated osteocalcin
Description: For calcium imaging, primary hindbrain neurons seeded on 12 mm coverslips were allowed the appropriate time to form structural networks. These cultures were washed with HBSS and loaded with 2.5 μM FURA-2, AM calcium indicator for 45 minutes at room temperature, according to the manufacturer's protocol. Cells were then washed to remove excess indicator and incubated for 30 minutes to allow internalized esters to become de-esterified. 30 ng/ml of osteocalcin was prepared with the control buffer of 1×HBBS supplemented with 10 mM HEPES buffer and 2 mM CaCl2. Using a Zeiss microscope with a perfusion system, coverslips were first perfused with control and osteocalcin. After each stimulation, cells were depolarized with 50 mM KCl to determine the percentage of live cells being imaged. All treatments were recorded using two-photon laser scanning microscopy by Prairie Technologies and analyzed by Z axis profile plotting using ImageJ.
To determine if osteocalcin acts directly on neurons to modulate neurotransmitter synthesis, several types of assays were performed. First, brainstem and midbrain explants from WT and Gprc6a^−/− mice were generated. […] Third, to further confirm that osteocalcin signals in neurons of the hindbrain, calcium flux in MPHN treated with undercarboxylated or carboxylated osteocalcin (FIG. 3F) was measured. […]

[2] = Positive control for blood brain barrier crossing: subcutaneous leptin infusion in ob/ob mice, content measured in brain; assay type: in vivo, mouse; conditions: subcutaneous infusion 50 ng/hour, seven days, 3 month-old ob/ob mice
Description: FIG. 3. Osteocalcin binds to neurons in the brain. (A) Measurement of the total osteocalcin in 3 month-old Osteocalcin^−/− mice infused subcutaneously for 7 days with either uncarboxylated osteocalcin (300 ng/hour, right panel) or PBS (left panel). Osteocalcin levels were measured in bone, serum, and different parts of the brain (cortex, midbrain, hypothalamus, brainstem, and cerebellum). (B) Subcutaneous infusion of leptin ([…], right panel) or PBS (left panel) for 7 days in ob/ob mice. Leptin levels were measured in serum, cortex, midbrain, hypothalamus, brainstem, and cerebellum. […]
Osteocalcin^−/−, Gprc6a^−/−, Osteocalcin-mCherry, and Osteocalcin floxed mice have been previously described (Ducy et al., 1996, Nature 382:448-452; Oury et al., 2011, Cell 144:796-809). Mouse genotypes were determined by PCR. […] Leptin and osteocalcin content in sera and tissues were determined by ELISA.
To understand how this behavioral phenotype develops, whether osteocalcin crosses the blood brain barrier (BBB) was tested by installing pumps that subcutaneously delivered vehicle or uncarboxylated osteocalcin (50 ng/hour) in three-month-old Osteocalcin^−/− mice. […] Seven days later, osteocalcin and leptin content were measured in blood, bone, and in various parts of the brain in Osteocalcin−/− and ob/ob mice, respectively. […]

[3] = test system: brainstem and midbrain explants from WT and Gprc6a-/- mice; test: Gene expression (qPCR) in brainstem and midbrain explants; assay type: cell-based, mouse; conditions: leptin, WT or Gprc6a-/- brainstem explants
Description: For gene expression studies, RNA was isolated from primary neurons or tissue using TRIZOL® (Invitrogen). cDNA synthesis was performed following a standard protocol from Invitrogen and qPCR analyses were done using specific quantitative PCR primers from SABiosciences (www.sabiosciences.com/RT2PCR.php).
Brains were dissected and incubated for 30 minutes in ice cold oxygenated artificial cerebrospinal fluid (ACSF). Brains were then sliced at 500 μm at the midbrain, −1.55 to −2.35 mm from the bregma, and at the level of the brainstem, from −4.04 to −4.48 mm and from −4.60 to −5.20 mm from the bregma, to include the median and dorsal raphe, respectively. These slices were incubated in ACSF for 1 h, constantly oxygenated (95% 02 and 5% CO2) for 4 h, after which they were treated with either osteocalcin (10 ng/ml) or PBS for four hours. Expression of Tph2, TH, GAD1, GAD2, and Ddc was measured by qPCR.
To determine if osteocalcin acts directly on neurons to modulate neurotransmitter synthesis, several types of assays were performed. First, brainstem and midbrain explants from WT and Gprc6a^−/− mice were generated. Brains were sliced (500 μm) at the level of the median and dorsal raphe of the brainstem (from −4.04 to −4.48 mm and from −4.60 to −5.20 mm, respectively), so that they would be enriched in serotonin-producing neurons, as well as at the level of substantia nigrae and ventral tegmental areas (VTA) of the midbrain (from −1.55 to −2.35 mm and from −2.55 to −3.25 mm, respectively). Enrichment in serotoninergic and catecholaminergic neurons in these explants was verified by their high Tph2 and Th expression. While leptin, used here as a positive control, reduced, as it should, Tph2 expression in WT or Gprc6a^−/− brainstem explants, osteocalcin (3 ng/ml) increased expression of this gene 2.5 fold in both WT and Gprc6a^−/− explants. (FIG. 3D). Additionally, osteocalcin increased Th expression in midbrain explants and decreased Gad1 expression in both WT and in Gprc6a^−/− hindbrain explants (FIG. 3D). Second, the cultured WT and Gprc6a^−/− mouse primary hindbrain neurons (MPHN) were treated with osteocalcin (3 ng/ml). […] Third, to further confirm that osteocalcin signals in neurons of the hindbrain, calcium flux in MPHN treated with undercarboxylated or carboxylated osteocalcin (FIG. 3F) was measured. […] Moreover, osteocalcin inhibits the action potential frequency of the GABAergic interneurons of the hindbrain (FIG. 3H).

Molecule	calcium fluxes in primary hindbrain neurons [1]	leptin content in parts of the brain [2]	Tph2 expression in brainstem explants (positive control) [3]
carboxylated osteocalcin: Carboxylated (Gla) form of osteocalcin used as comparison in the calcium flux assay (YLGASVPSPDPLEPTREQCELNPACDELSDQYGLKTAYKRIYGITI; ends and bridges not checked; also: gamma-carboxylated (Gla) form, places not given here; UniProt P86546 50-95, looked up) [reference compound]	not	–	–
leptin: adipocyte-derived hormone, positive control known to cross the BBB (protein, UniProt P41160 22-167, looked up) Leptin: VPIQKVQDDTKTLIKTIVTRINDISHTQSVSAKQRVTGLDFIPGLHPILSLSKMDQTLAVYQQVLTSLPSQNVLQIANDLENLRDLLHLLAFSKSCSLPQTSGLQKPESLDGVLEASLYSTEVVALSRLQGSLQDILQQLDVSPEC	–	could be detected in the brainstem and hypothalamus	reduced

From patent US10052364B2, “Osteocalcin as a treatment for cognitive disorders” (THE TRUSTEES OF COLUMBIA UNIVERSITY IN THE CITY OF NEW YORK, priority 2013, dated 2018)
